Data on two substances can be found in patent US20150139990A1.

Assay [1] addresses human CD81 on CD81-expressing cells (Jurkat E6.1, human PBMC, Ramos) (human) (UniProt P60033). The assay is described as follows: flow cytometry, Jurkat cells, 10 µg/mL.
Assay [2] has the same target. Nature of the assay: flow cytometry, Ramos cells, 10 µg/mL. (In flow cytometry, cells or beads pass a laser one at a time.)
Assay [3] shares this target. The assay is described as follows: flow cytometry, Ramos cells, 1 µg/mL.
Assay [4] has the same target. Nature of the assay: flow cytometry, Jurkat cells, 0.1 µg/mL.
Assay [5] has the same target. The assay is described as follows: flow cytometry, Jurkat cells, 1 µg/mL.
For assay [6] the target is unchanged. Nature of the assay: flow cytometry, Jurkat cells, 0.01 µg/mL.
Assay [7] shares this target. Nature of the assay: flow cytometry, Ramos cells, 0.01 µg/mL.
Assay [8] shares this target. Nature of the assay: flow cytometry, Ramos cells, 0.1 µg/mL.
The target is the same in assay [9]. The assay is described as follows: flow cytometry, Jurkat E6.1 cells.
The target is the same in assay [10]. The assay is described as follows: flow cytometry, human PBMC.

Chain of human CD81 on CD81-expressing cells (Jurkat E6.1, human PBMC, Ramos) (human) (P60033 whole entry): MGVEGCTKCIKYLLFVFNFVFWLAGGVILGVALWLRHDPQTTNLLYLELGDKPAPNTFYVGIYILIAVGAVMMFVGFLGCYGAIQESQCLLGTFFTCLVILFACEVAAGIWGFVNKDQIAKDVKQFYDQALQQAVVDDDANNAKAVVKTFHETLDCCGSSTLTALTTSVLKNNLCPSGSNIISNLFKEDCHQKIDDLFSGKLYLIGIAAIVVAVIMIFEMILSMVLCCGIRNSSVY

“control human IgG (AbD Serotec) (antibody)”: the geometric mean FL2 in [1] was 8; in assay [2] it was 8; in assay [3] it was 5; in assay [4] it was 4; in assay [5], 4; in assay [6], 4. Besides, the geometric mean FL2 in assay [7] and in assay [8] was 4 throughout.

In the case of control human IgG4 (Acris) (antibody), the binding ratio to cells (%) in assay [9] and in [10] was 1% in each case.
